Laboratory results: the supplement of paper PMC12764529
± gives the half width of the 95% confidence interval.

Columns and labels:
[1] = folding stability dG unfold (combined trypsin and chymotrypsin); higher = more stable
Outline: (§1)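 How resistant each design was to proteolysis was captured as K50, inferred by Bayesian fitting of sequencing counts. Unfolding free energy was then derived relative to a sequence-predicted unfolded-state K50 and a shared folded-state K50, per protease or combined. Digestion used trypsin and chymotrypsin at 11 threefold-diluted concentrations plus a no-protease condition, on mini-proteins under 80 residues without cysteine in a PA-tagged cDNA display construct. Designs were kept only when AlphaFold2 dimer inter-PAE was above 15.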

[2] = folding stability dG unfold from trypsin proteolysis; higher = more stable
Outline: as §1

[3] = folding stability dG unfold from chymotrypsin proteolysis; higher = more stable
Outline: as §1

Sequence	folding stability dG unfold [1]	folding stability dG unfold [2]	folding stability dG unfold [3]
SKFKIDEIKYEPNKPYTIKVKLPDGTTIEIKYDPNKPNEVKIILTHPDGSKKEFTLPYNYPININLKVNPSA [r9_875_TrMRF]	1.95 ± 0.083 kcal/mol	1.59 ± 0.031 kcal/mol	2.05 ± 0.081 kcal/mol
SAGGSAGGSAGGKVLHVPYENIEEKIKEAEEKYPNKEILIHAYLPNGKLLKTIKIKVKKSAGGSAGGSAGGS [r10_741_TrMRF]	1.23 ± 0.053 kcal/mol	1.29 ± 0.026 kcal/mol	1.18 ± 0.03 kcal/mol
SAGGSAMESFLGAAKEVLSQMEPGEIVLLPLERPDDKPLLVLLDPTTRRLVVFYPDGGYEEFDFPESAGGSA [r15_977_TrMRF]	2.86 ± 0.079 kcal/mol	2.74 ± 0.046 kcal/mol	2.9 ± 0.064 kcal/mol
SAGGKMVIVKIRIKERKVKVEKTKDGKEKKVEVEEKEKEITLIVEGSEEEVKKLAEELEKLGLEVEVISAGG [r13_452_TrROS_Hall]	2.28 ± 0.14 kcal/mol	1.2 ± 0.063 kcal/mol	2.52 ± 0.079 kcal/mol
SAGGSAGGSASIELPPDATVTLTTLDPATGTVTTTTVKVDSTGTTTLATTTTTVDPASAAAASAGGSAGGSA [r18_248_JUSTAS]	1.41 ± 0.11 kcal/mol	1.27 ± 0.055 kcal/mol	1.35 ± 0.028 kcal/mol
SAGGSAGGSAGWYFPIDELQKEHPNMSPETIADFFQKDGYKIEVEPVGPEPWVKIEPPEKSAGGSAGGSAGG [r11_707_TrROS]	0.242 ± 0.12 kcal/mol	0.658 ± 0.07 kcal/mol	-0.513 ± 0.67 kcal/mol
SAGGSAGGSAGKLRVRIPPRLRERLRKRKRVRLRLRVEEREVRDEDGNLRRVRRLEIELESAGGSAGGSAGG [r11_113_TrROS_Hall]	1.42 ± 0.17 kcal/mol	0.819 ± 0.15 kcal/mol	2.03 ± 0.19 kcal/mol
SAGGSAGGSDKVVEFTFKIPSKDITAEDIAKAVKEAFPGVKKIEVTLYPGEGTAKVKVYLEPSSAGGSAGGS [r20_31_TrMRF]	4.29 ± 0.18 kcal/mol	3.52 ± 0.16 kcal/mol	4.44 ± 0.088 kcal/mol
SAGGMVKVLKVETYPGTGEVIVTMELPGNTVATVRIPRAPDAPLTVSPDGVVTVPTAPVTELETTAPSAGGS [r16_515_JUSTAS]	0.322 ± 0.049 kcal/mol	-0.276 ± 0.053 kcal/mol	0.591 ± 0.054 kcal/mol
SAGGSAGGSAGDTSVEYEVSVTVEVFPLPDYALVKVTLEVDYPDGSKEKVEYVFLVSPYEGSAGGSAGGSAG [r3_330_TrMRF]	3.04 ± 0.1 kcal/mol	2.56 ± 0.19 kcal/mol	3.35 ± 0.082 kcal/mol
SAGGSAMKKVTVTVKFPDGTTYTFDMDTESEEEFEKKVREEALKRFPDIPLEDVEVTEVVVTPELLSAGGSA [r15_220_JUSTAS]	2.33 ± 0.12 kcal/mol	2.3 ± 0.16 kcal/mol	2.38 ± 0.039 kcal/mol
SAGGGMESRTLTLPKEEIEKVKEEIKKASNLDIKVTTKKLPNGEYELTITFSNPEDVEKFEKKLGIESAGGS [r16_172_JUSTAS]	2.71 ± 0.15 kcal/mol	1.99 ± 0.16 kcal/mol	3.05 ± 0.059 kcal/mol
SAGGSAGGDEVKIEVEVKKVKVKVRVRVKNEDGEEKEVEKEFEVEVVKVKIEFKSPEEAKKLGLSAGGSAGG [r6_149_TrROS_Hall]	1.11 ± 0.27 kcal/mol	1.14 ± 0.088 kcal/mol	0.144 ± 0.42 kcal/mol
SAGGSAGGSPVLVRVYARDEDGNETPVAEIALPVENDNPEEAAKKAREIAKKLGVKEYRVEIESAGGSAGGS [r12_569_TrMRF]	1.48 ± 0.04 kcal/mol	1.37 ± 0.031 kcal/mol	1.56 ± 0.046 kcal/mol
SAGGSAGGSMKKLKITFPPGMTEEELKKKIEELAKKLNLEVVKIKSIEYDKENKEVTITVEIKSAGGSAGGS [r12_131_TrROS_Hall]	3.87 ± 0.088 kcal/mol	4.2 ± 0.17 kcal/mol	3.77 ± 0.059 kcal/mol
SAGGEVKVVKAEVTTLPDGRKLVRLLLEVGGKFYPVLIDVHPDGVRITFPDGKTATIKLEDLKNLTWSAGGS [r16_593_TrMRF]	2.15 ± 0.12 kcal/mol	2.64 ± 0.094 kcal/mol	1.73 ± 0.14 kcal/mol

Sequence	folding stability dG unfold [1]	folding stability dG unfold [2]	folding stability dG unfold [3]
SAGGSAGGTSVADELEEEFKAKGYPAEVTVTKLPDDTTLVTVTVTDPKTGKSTTTTVTVSPAEASAGGSAGG [r6_692_JUSTAS]	0.861 ± 0.16 kcal/mol	1.02 ± 0.076 kcal/mol	1.01 ± 0.12 kcal/mol
SAGMVIPREEALANYSEEEIKELAKKIAEELGYKPKKIEIKKDPSPNSSITVTITPPDGSTIPLVLELPSAG [r5_745_JUSTAS]	1.06 ± 0.047 kcal/mol	0.959 ± 0.041 kcal/mol	1.08 ± 0.037 kcal/mol
SAGGSAGGSAGGEWRTLYIPIPGMPPEFIETFALELLDDGAKVEDIEWNPNNGYLMITVRSAGGSAGGSAGG [r7_906_TrROS]	1.82 ± 0.075 kcal/mol	1.37 ± 0.029 kcal/mol	2.05 ± 0.056 kcal/mol
SAGGSAGGSAGMTRTVTFTITDPNSSNTTTITVPTTSEQDVAAAKAALKAANPNVTITLTSAGGSAGGSAGG [r11_233_JUSTAS]	0.718 ± 0.076 kcal/mol	0.3 ± 0.12 kcal/mol	0.954 ± 0.092 kcal/mol
SAGGSAGGWITLDLIKELAREAMNQAQLNGMENVPIEIRWPDGWRIKIEINMNKVEVDVQPWNDSAGGSAGG [r6_270_TrROS]	2.4 ± 0.15 kcal/mol	1.9 ± 0.11 kcal/mol	2.57 ± 0.079 kcal/mol
SAGKVKATYDPKTGTLTITFNVKKNEKINVKANIKIPEYNATVEKVETNGAKKDNEPVTVKIKLKNLKKSAG [r5_737_TrMRF]	1.94 ± 0.54 kcal/mol	1.06 ± 0.076 kcal/mol	2.75 ± 0.12 kcal/mol
SAGMMKFPPGAKIKIVNKETGEEKEITLPEGAEVEFDEETGEVHIRVKVDGKEYRFTFKNGEIVEVEEVSAG [r5_22_TrROS_Hall]	3.73 ± 0.3 kcal/mol	3.23 ± 0.26 kcal/mol	4.3 ± 0.066 kcal/mol
SAGGSMISTLSESVDPAKNTTYYLNLYTEGSRAYGALVTVTTDPATGTKTITTKFPALPEVTTTETVASAGG [r13_615_JUSTAS]	0.551 ± 0.034 kcal/mol	0.511 ± 0.026 kcal/mol	0.489 ± 0.061 kcal/mol
SAGGSMTITITNEDGSTYEITVEEENGKLRITITVDGKTVEIEFDKETGKITIRYNGKTFTLTIKPSAGGSA [r2_194_TrROS_Hall]	5 ± 0.42 kcal/mol	3.85 ± 0.19 kcal/mol	5.33 ± 0.13 kcal/mol
SDLDPNSTLVFSAPFPVSDPDALLEHAETVARELGPDVRVERVVFDPNTPNVAVVEVSVPGGTVTLVYSRSA [r9_1079_TrMRF]	1.33 ± 0.062 kcal/mol	1.24 ± 0.017 kcal/mol	1.36 ± 0.061 kcal/mol
SAGGSAGGSAMKLKVPTKDGKVYEVTVVDYDPENEKVVVKNPDTDELYTFSLEDFKKILEANSAGGSAGGSA [r18_161_TrMRF]	3.36 ± 0.12 kcal/mol	2.72 ± 0.17 kcal/mol	3.55 ± 0.08 kcal/mol
SAGGMVDIYFPDAVIDDSGTKEDILEQLEKVTGKPIPEELREEILKGKTVEEIVELLKKRGFDVRVDSAGGS [r16_601_TrMRF]	3.13 ± 0.12 kcal/mol	2.8 ± 0.12 kcal/mol	3.4 ± 0.059 kcal/mol
SAGGSVEFEETITDPLKSLEEAKALAEEIEAELKAKGYKVTVTVTVVPPGSVTATITVTTDPAKGKKASAGG [r13_697_JUSTAS]	0.82 ± 0.22 kcal/mol	0.822 ± 0.063 kcal/mol	1.34 ± 0.072 kcal/mol
SAGGSAMAYLVRAELEVEGPDGRRERLELVLVAEDLPLEEALAAAREAAAELGAELVSVEVEPLEPSAGGSA [r15_550_TrMRF]	2.21 ± 0.098 kcal/mol	0.858 ± 0.061 kcal/mol	2.55 ± 0.039 kcal/mol
SAGGSAGGPVITFPWNDIPELLERARENGDPEYYIRVSPDDPGNFTIMPPEEAEENGMPVIPLDSAGGSAGG [r6_710_TrROS]	-0.668 ± 0.33 kcal/mol	-0.976 ± 0.45 kcal/mol	-0.656 ± 0.46 kcal/mol
